According to patent US20090137002A1 (published 2009):

T1: recombinant human EphB4-Fc fusion protein (human, UniProt P54760 16-539)
T1 construct: extracellular domain; also called hEphB4; hu EphB4-Fc
T1 sequence (looked up): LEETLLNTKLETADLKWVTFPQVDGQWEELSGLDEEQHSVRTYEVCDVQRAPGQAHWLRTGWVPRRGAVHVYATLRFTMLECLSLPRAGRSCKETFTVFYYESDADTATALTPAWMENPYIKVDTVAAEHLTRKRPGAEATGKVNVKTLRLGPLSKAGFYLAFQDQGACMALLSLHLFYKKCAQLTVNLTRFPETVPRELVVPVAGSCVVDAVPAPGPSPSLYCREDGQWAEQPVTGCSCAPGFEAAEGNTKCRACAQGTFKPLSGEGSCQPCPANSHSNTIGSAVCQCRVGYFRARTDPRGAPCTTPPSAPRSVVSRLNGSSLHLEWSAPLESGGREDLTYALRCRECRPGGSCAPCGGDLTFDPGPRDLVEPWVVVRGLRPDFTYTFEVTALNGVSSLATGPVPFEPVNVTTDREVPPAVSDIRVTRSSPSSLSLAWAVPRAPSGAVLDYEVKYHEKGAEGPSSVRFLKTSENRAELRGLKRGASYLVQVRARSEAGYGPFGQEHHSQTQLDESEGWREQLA

T2: myc-tagged human EphB4 on transfected CHO cells (human, UniProt P54760 16-987)
T2 construct: whole, on cells; also called CHO-EphB4; CHO-hEphB4; not shown: myc tag
T2 sequence (looked up): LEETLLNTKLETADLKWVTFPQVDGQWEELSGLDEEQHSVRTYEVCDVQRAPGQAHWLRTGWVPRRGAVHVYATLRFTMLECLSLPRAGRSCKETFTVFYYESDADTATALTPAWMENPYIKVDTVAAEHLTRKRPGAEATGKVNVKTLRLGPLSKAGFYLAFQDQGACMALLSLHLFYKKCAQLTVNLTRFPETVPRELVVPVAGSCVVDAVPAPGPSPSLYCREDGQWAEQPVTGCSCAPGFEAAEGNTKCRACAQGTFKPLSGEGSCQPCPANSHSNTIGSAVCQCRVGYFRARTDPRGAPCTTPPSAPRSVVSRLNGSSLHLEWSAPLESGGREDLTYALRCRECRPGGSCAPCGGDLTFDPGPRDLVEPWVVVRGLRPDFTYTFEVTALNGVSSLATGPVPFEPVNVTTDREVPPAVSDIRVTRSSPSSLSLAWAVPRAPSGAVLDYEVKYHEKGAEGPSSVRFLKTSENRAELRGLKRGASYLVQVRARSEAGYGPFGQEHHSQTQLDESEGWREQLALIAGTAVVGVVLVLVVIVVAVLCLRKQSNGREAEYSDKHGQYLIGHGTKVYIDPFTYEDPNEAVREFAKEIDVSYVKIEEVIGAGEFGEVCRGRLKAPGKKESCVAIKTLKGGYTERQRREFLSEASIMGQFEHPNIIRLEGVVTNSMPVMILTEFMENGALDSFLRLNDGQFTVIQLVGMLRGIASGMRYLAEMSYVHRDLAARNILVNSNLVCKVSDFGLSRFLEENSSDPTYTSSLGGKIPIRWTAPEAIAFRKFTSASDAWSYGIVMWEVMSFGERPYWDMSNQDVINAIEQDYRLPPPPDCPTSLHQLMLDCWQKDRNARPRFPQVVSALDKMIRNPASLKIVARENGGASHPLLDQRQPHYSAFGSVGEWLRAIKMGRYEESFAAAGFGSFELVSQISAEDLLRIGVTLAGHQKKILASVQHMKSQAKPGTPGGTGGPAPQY

T3: recombinant murine EphB4-Fc fusion protein (mouse, UniProt P54761 16-539)
T3 construct: extracellular domain; also called mEphB4; mu EphB4; not shown: Fc part, not described
T3 sequence (looked up): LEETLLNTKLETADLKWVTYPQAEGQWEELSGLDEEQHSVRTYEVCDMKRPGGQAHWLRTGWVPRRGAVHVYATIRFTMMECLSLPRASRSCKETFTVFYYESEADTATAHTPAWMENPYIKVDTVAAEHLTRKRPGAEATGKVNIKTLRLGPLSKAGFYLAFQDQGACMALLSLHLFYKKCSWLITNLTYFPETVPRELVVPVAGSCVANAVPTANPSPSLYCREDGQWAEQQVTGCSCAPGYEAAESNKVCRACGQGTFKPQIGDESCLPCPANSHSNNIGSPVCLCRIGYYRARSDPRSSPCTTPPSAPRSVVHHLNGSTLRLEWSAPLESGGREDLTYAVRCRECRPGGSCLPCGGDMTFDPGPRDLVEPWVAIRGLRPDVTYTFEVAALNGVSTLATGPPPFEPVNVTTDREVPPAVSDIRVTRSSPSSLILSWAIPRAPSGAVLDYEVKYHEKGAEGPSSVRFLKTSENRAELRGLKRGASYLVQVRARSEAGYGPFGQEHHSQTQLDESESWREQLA

B1: MOR03641 Fab (Fab, V domains shown)
VH: QVQLVQSGAEVKKPGSSVKVSCKASGGTFSTYAISWVRQAPGQGLEWMGRIIPIFGTANYAQKFQGRVTITADESTSTAYMELSSLRSEDTAVYYCARSSYTILTTYYNYNAMDNWGQGTLVTVSS
VL: DIQMTQSPSSLSASVGDRVTITCRASQNINNFLNWYQQKPGKAPKLLIYGSSILQSGVPSRFSGSGSGTDFTLTISSLQPEDFAVYYCHQVSDTSDTFGQGTKVEIKR
notes: Monomeric HuCAL Fab (VH1A, kappa1), purified, MH-tagged; also called 3541 [sic]
B2: MOR03639 Fab (Fab, V domains shown)
VH: QVQLVESGGGLVQPGGSLRLSCAASGFTFSNYYLHWVRQAPGKGLEWVSGISYSGSSTYYADSVKGRFTISRDNSKNTLYLQMNSLRAEDTAVYYCARFYQRRQIPHGYDVWGQGTLVTVSS
VL: DIELTQPPSVSVAPGQTARISCSGDNIGDYYVHWYQQKPGQAPVLVIYRDSNRPSGIPERFSGSNSGNTATLTISGTQAEDEADYYCGSYDMPFGGTVFGGGTKLTVLG
notes: Monomeric HuCAL Fab (VH3, lambda3), purified, MH-tagged
B3: MOR03640 Fab (Fab, V domains shown)
VH: QVQLVESGGGLVQPGGSLRLSCAASGFTFNNSWMSWVRQAPGKGLEWVSNITSSSSMTHYADSVKGRFTISRDNSKNTLYLQMNSLRAEDTAVYYCARKGMSFYNNKYAKSMFDLWGQGTLVTVSS
VL: DIELTQPPSVSVAPGQTARISCSGDNLGKKYVHWYQQKPGQAPVLVIYYDSKRPSGIPERFSGSNSGNTATLTISGTQAEDEADYYCSAWTTTMMHIVFGGGTKLTVLG
notes: Monomeric HuCAL Fab, purified, MH-tagged

Experiments:
[1] = target: T1, recombinant human EphB4-Fc fusion …; experiment: competition ELISA, Fab against EphrinB2-Fc on immobilized human EphB4
Method: (§1) IC₅₀ values were determined using recombinant antigen (murine and human EphB4) in an ELISA and on transfected cells in a FACS analysis (human EphB4 receptor).
(§2) Binding of (a fixed concentration of) the ligand EphrinB2-Fc to immobilized EphB4 receptor on an ELISA plate or on transfected cells is titrated with anti-EphB4 Fab. The IC₅₀ is determined as the amount of Fab at which the binding of EphrinB2 is inhibited by 50%.

[2] = target: T2, myc-tagged human EphB4 on transfected …; experiment: FACS competition on CHO-hEphB4 cells, competitor biotinylated mEphrinB2 250 ng/mL
Method: CHO-hEphB4 cells were trypsinized, washed and resuspended in FACS buffer (PBS/1% BSA) containing anti-EphB4 antibody at different concentrations and incubated at 4° C. for 30 min. Cells were washed in FACS buffer and resuspended in FACS buffer containing biotinylated mEphrinB2 at 250 ng/mL and incubated at 4° C. for 1 hr. cells were washed in FACS buffer and resuspended in FACS buffer containing Streptavidin-PE and incubated at 4° C. for 30 min. After a final wash step, cell staining was analyzed in a Becton Dickinson FACS.

[3] = target: T1, recombinant human EphB4-Fc fusion …; experiment: ELISA
[4] = target: T3, recombinant murine EphB4-Fc fusion …; experiment: competition ELISA, Fab against EphrinB2-Fc on immobilized murine EphB4
Method: as §1, §2

[5] = target: T2, myc-tagged human EphB4 on transfected …; experiment: FACS, Fab against EphrinB2-Fc on hEphB4-transfected cells
Method: as §1, §2

Binder	IC50 [1] [mg/L]	IC50 (read off the curve) [2] [mg/L]	ELISA signal above background [3] [fold]	IC50 [4] [mg/L]	IC50 [5] [mg/L]
B1	5	~1	10	24	4.4
B2	65	~2	10	22	2.8
B3	33	~0.4	10	117	2.1
